For the experiment, the target named is EBV gH/gL heterodimer, recombinant ectodomain (Epstein-Barr virus, UniProt P03231;P03212). Kind of experiment: BLI. For orientation: Biolayer interferometry detects binding as a change in optical thickness at a sensor tip.

B1: E1D1, murine anti-gH/gL monoclonal antibody (antibody, V domains shown)
VH: EVQLEQSGPELVKPGASVKMSCKASGYTFTDYVISWVKQRTGQGLEWIGEIYPESGNTYYNEKFKGEATLTADKSSNTAYMQLSRLTSEDSAVYFCAEGYAMDFWGQGTSVTVSS
VL: DIVITQTPLSLPVSLGDQASISCRSSQSLLHSNGNTYLHWYLQRPGQSPKLLIYKVSNRFSGVPDRFSGSGSGTDFTLMINRVEAEDLGVYFCSQSIHVPRTFGGGTKLEIK
In the case of B1, the binding result is recorded as “binds”.

B2: AMMO1 with the first residue of the heavy chain substituted by an asparagine (antibody, V domains shown)
VH: NVQLVQSGADVKKPGASVKVSCKASGYTFIHFGISWVRQAPGQGLEWMGWIDTNNGNTNYAQSLQGRVTMTTDTSTGTAYMELRSLSTDDTAVYFCARALEMGHRSGFPFDYWGQGVLVTVSP
VL: SYELTQPPSVSVAPGQRATITCGGHNIGAKNVHWYQQKPGQAPVLVIQYDSDRPSGIPERFSGSNSGSTATLTISRVEAGDEADYYCQVWDSGRGHPLYVFGGGTKVTVL
With B2, the binding result is given as “binds”.
